Assay results reported in the supplement of paper PMC9233669.
Fewer inactive variants are shown than the library holds.

What was measured:
biotinyl-Phe-oxazolone = assay: self-aminoacylation, catalytic enhancement (BFO) (fold over background); higher = more active; k-Seq, kA / k0A0; sequences stand for … in GGGAAUGGAUCCACAUCUACGAAUUC…UUCACUGCAGACUUGACGAAGCUG
How it was run: (§1)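 Catalytic enhancement equals the median kA over the uncatalyzed rate, the latter read from the low-activity peak of a bimodal Gaussian fit. Values of kA came from fitting each sequence's fraction reacted to a pseudo-first-order model, with 1000 bootstraps. Reacted RNA was captured with streptavidin and quantified by triplicate qPCR and Illumina sequencing after 90 minutes at room temperature with 2–1250 μM biotinyl-aminoacyl-oxazolone and 0.43 μM mutagenized RNA pools bearing a 21-nt variable region.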

biotinyl-Trp-oxazolone = assay: self-aminoacylation, catalytic enhancement (BWO) (fold over background); higher = more active; k-Seq, kA / k0A0; sequences stand for … in GGGAAUGGAUCCACAUCUACGAAUUC…UUCACUGCAGACUUGACGAAGCUG
How it was run: as §1

biotinyl-Leu-oxazolone = assay: self-aminoacylation, catalytic enhancement (BLO) (fold over background); higher = more active; k-Seq, kA / k0A0; sequences stand for … in GGGAAUGGAUCCACAUCUACGAAUUC…UUCACUGCAGACUUGACGAAGCUG
How it was run: as §1

biotinyl-Ile-oxazolone = assay: self-aminoacylation, catalytic enhancement (BIO) (fold over background); higher = more active; k-Seq, kA / k0A0; sequences stand for … in GGGAAUGGAUCCACAUCUACGAAUUC…UUCACUGCAGACUUGACGAAGCUG
How it was run: as §1

biotinyl-Met-oxazolone = assay: self-aminoacylation, catalytic enhancement (BMO) (fold over background); higher = more active; k-Seq, kA / k0A0; sequences stand for … in GGGAAUGGAUCCACAUCUACGAAUUC…UUCACUGCAGACUUGACGAAGCUG
How it was run: as §1

biotinyl-Val-oxazolone = assay: self-aminoacylation, catalytic enhancement (BVO) (fold over background); higher = more active; k-Seq, kA / k0A0; sequences stand for … in GGGAAUGGAUCCACAUCUACGAAUUC…UUCACUGCAGACUUGACGAAGCUG
How it was run: as §1

Sequence	self-aminoacylation (biotinyl-Phe-oxazolone)	self-aminoacylation (biotinyl-Trp-oxazolone)	self-aminoacylation (biotinyl-Leu-oxazolone)	self-aminoacylation (biotinyl-Ile-oxazolone)	self-aminoacylation (biotinyl-Met-oxazolone)	self-aminoacylation (biotinyl-Val-oxazolone)
CCGCACUUCAGGCAAUCGGUC [Fam1B.1 aminoacylation ribozyme variant]	6.33	2.88	2.33	1.76	1.98	2.87
CCGGACUUCAAGCAAUCGGUC [Fam1B.1 aminoacylation ribozyme variant]	39.3	26.3	2.03	1.5	1.31	1.71
CCUCAAUUCAAGCAAUCGGUC [Fam1B.1 aminoacylation ribozyme variant]	6.19	3.57	1.04	1.07	0.916	0.943
CCUCACAUCAAGCAAUCGGUC [Fam1B.1 aminoacylation ribozyme variant]	1.77	1.05	0.726	0.87	0.749	0.973
CCUCACUUCAAGCAAUCGCUC [Fam1B.1 aminoacylation ribozyme variant]	1.27	0.912	1.36	1.16	1.15	1.18
CCUCACUUCAAGCAAUCGGCC [Fam1B.1 aminoacylation ribozyme variant]	5.49	5.38	1.59	1.9	1.53	2.39
CCUCACUUCAAGCAAUCGGUC [Fam1B.1 aminoacylation ribozyme variant]	55.7	22.4	1.58	1.07	1.07	1.21
CCUCACUUCAAGCAAUCGGUU [Fam1B.1 aminoacylation ribozyme variant]	9.36	6.83	1.7	1.34	1.45	1.61
CCUCACUUCAAGCAAUCUGUC [Fam1B.1 aminoacylation ribozyme variant]	1.03	0.563	0.313	0.458	0.343	0.515
CCUCACUUCAAGCAAUUGGUC [Fam1B.1 aminoacylation ribozyme variant]	1.67	0.673	0.506	0.654	0.562	0.606
CCUCACUUCAGGCAAUCGGUC [Fam1B.1 aminoacylation ribozyme variant]	1.59	0.952	0.947	0.856	0.951	0.932
CCUCACUUCGAGCAAUCGGUC [Fam1B.1 aminoacylation ribozyme variant]	2.23	1.16	1.04	1.08	0.881	1.04
CCUCAGUUCAAGCAAUCGGUC [Fam1B.1 aminoacylation ribozyme variant]	5.46	3.37	1.36	1.12	1.17	1.03
CGACACAUCAAGCAAUCGGUC [Fam1B.1 aminoacylation ribozyme variant]	1.47	0.828	1.09	1.01	0.811	1.13
CGACACUACAAGCAAUCGGUC [Fam1B.1 aminoacylation ribozyme variant]	0.638	0.675	0.755	0.935	0.769	1
CGACACUUCAACCAAUCGGUC [Fam1B.1 aminoacylation ribozyme variant]	18.2	13.4	1.65	1.38	1.61	1.6
CGACACUUCAAGCAAACGGUC [Fam1B.1 aminoacylation ribozyme variant]	0.979	0.612	0.537	0.814	0.687	0.76
CGACACUUCAAGCAAUCGGCC [Fam1B.1 aminoacylation ribozyme variant]	3.39	3.53	2.84	3.11	1.79	3.32
CGACACUUCAAGGAAUCGGUC [Fam1B.1 aminoacylation ribozyme variant]	3.19	1.84	1.89	2.39	1.42	1.73
CGACAUUUCAAGCAAUCGGUC [Fam1B.1 aminoacylation ribozyme variant]	1.28	1.33	1.06	1.18	1.09	1.17
CGACGUCAAACAAUCGGUCUG [Fam1A.1 aminoacylation ribozyme variant]	4.02	1.82	1.24	1.25	1.84	1.66

Sequence	self-aminoacylation (biotinyl-Phe-oxazolone)	self-aminoacylation (biotinyl-Trp-oxazolone)	self-aminoacylation (biotinyl-Leu-oxazolone)	self-aminoacylation (biotinyl-Ile-oxazolone)	self-aminoacylation (biotinyl-Met-oxazolone)	self-aminoacylation (biotinyl-Val-oxazolone)
CGACUACAAACAAUCGGUCUG [Fam1A.1 aminoacylation ribozyme variant]	2.44	1.31	0.926	1.09	1.22	1.15
CGACUUCAAACAAUCAGUCUG [Fam1A.1 aminoacylation ribozyme variant]	28.2	10.2	1.27	0.938	1.01	0.893
CGACUUCAAACAAUCGGUAUG [Fam1A.1 aminoacylation ribozyme variant]	10.8	5.6	1.3	1.09	1.16	1.28
CGACUUCAAACAAUCGGUCUC [Fam1A.1 aminoacylation ribozyme variant]	53.8	31.1	1.99	1.52	1.59	1.35
CGACUUCAAACAAUCGGUCUU [Fam1A.1 aminoacylation ribozyme variant]	18.2	12.7	1.77	1.64	1.26	1.71
CGACUUCAAACAAUUGGUCUG [Fam1A.1 aminoacylation ribozyme variant]	1.57	1.25	0.999	1.06	0.91	0.891
CUAAUUCAAACAAACGGUCUG [Fam1A.1 aminoacylation ribozyme variant]	0.687	0.543	0.561	0.823	0.616	0.917
CUAAUUCAAACAAUCGAUCUG [Fam1A.1 aminoacylation ribozyme variant]	0.72	0.361	0.544	0.604	0.43	0.561
CUAAUUCAAACAAUCGGUUUG [Fam1A.1 aminoacylation ribozyme variant]	3.96	2.78	0.696	0.802	0.701	0.724
CUACACUUCAAGCAAUCGGGC [Fam1B.1 aminoacylation ribozyme variant]	0.999	2.02	1.27	1.48	1.95	1.42
CUACACUUCAAGCAAUGGGUC [Fam1B.1 aminoacylation ribozyme variant]	0.544	0.47	0.542	0.65	0.494	0.536
CUACAUCAAAAAAUCGGUCUG [Fam1A.1 aminoacylation ribozyme variant]	1.35	0.753	0.633	0.831	0.712	0.745
CUACAUCAAACAAUCGCUCUG [Fam1A.1 aminoacylation ribozyme variant]	0.457	0.67	0.89	0.803	0.777	0.878
CUACAUCAAACAAUCGGGCUG [Fam1A.1 aminoacylation ribozyme variant]	0.764	1.29	0.965	1.36	1.44	1.3
CUACAUCAAACAAUCGGUCUG [Fam1A.1 aminoacylation ribozyme variant]	2.27	1.41	0.736	0.799	0.759	0.82
CUACAUCAAACAAUCGGUCUU [Fam1A.1 aminoacylation ribozyme variant]	1.45	1.25	0.615	0.69	0.791	0.748
CUACAUCAAACAAUCUGUCUG [Fam1A.1 aminoacylation ribozyme variant]	0.795	0.497	0.624	0.722	0.533	0.736
CUACAUCAAACACUCGGUCUG [Fam1A.1 aminoacylation ribozyme variant]	3.01	1.11	0.978	1.03	1.03	1.26
CUACAUCAAAUAAUCGGUCUG [Fam1A.1 aminoacylation ribozyme variant]	1.42	0.824	0.717	0.801	0.804	0.864
CUACAUUAAACAAUCGGUCUG [Fam1A.1 aminoacylation ribozyme variant]	0.647	0.75	0.898	0.992	1.14	0.819
CUACAUUUCAAGCAAUCGGUC [Fam1B.1 aminoacylation ribozyme variant]	2.41	1.45	0.705	0.887	0.748	0.849
